# From paper PMC10786891, “Massively parallel profiling of RNA-targeting CRISPR-Cas13d”
# Positions count from the first letter of the chain named. Names may count otherwise.
# T1: EsCas13d, nuclease-dead (Eubacterium siraeum, UniProt B0MS50, R295A;H300A;R849A;H854A)
# T1 sequence: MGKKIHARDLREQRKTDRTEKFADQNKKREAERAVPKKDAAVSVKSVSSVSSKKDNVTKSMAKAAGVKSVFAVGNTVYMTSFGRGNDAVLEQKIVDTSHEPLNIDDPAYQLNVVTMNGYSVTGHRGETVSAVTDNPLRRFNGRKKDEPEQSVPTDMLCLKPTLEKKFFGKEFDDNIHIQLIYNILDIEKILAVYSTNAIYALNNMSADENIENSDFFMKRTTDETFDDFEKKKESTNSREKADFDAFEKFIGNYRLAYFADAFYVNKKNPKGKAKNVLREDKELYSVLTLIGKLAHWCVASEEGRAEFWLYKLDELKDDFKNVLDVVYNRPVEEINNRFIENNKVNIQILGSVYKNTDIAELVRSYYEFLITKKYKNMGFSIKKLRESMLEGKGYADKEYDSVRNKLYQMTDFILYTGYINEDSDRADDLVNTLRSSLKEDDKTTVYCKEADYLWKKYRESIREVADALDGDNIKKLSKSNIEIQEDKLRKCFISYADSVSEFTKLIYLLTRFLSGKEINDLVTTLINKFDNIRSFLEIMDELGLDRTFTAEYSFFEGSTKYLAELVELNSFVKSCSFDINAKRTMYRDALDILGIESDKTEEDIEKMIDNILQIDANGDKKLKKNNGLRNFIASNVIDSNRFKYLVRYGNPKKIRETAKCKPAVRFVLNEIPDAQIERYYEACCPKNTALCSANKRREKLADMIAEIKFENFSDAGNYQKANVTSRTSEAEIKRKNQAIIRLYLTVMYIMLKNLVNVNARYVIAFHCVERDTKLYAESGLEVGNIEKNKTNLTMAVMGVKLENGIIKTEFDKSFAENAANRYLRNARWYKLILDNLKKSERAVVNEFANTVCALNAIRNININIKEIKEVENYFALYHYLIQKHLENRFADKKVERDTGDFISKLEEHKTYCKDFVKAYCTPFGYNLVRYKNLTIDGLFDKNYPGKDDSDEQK
# B1: target 1 G12U,A14G (mixed)
# RNA 1: CACCCGUGCAAAAAUGCAGGGGUCUAAAACUGAGCGGAUAACCUCUCUAUGG
# RNA 2: GGGAAUGGAUCCACAUCUACGAAUUCGUACCAUAGAGGGUUUAUCCGCUCACCGAGAUCGGAAGAGCACACGU
# B2: target 1 U8C,U11C (mixed)
# RNA 1: B1 RNA 1
# RNA 2: B1 RNA 2 with G38A, U40G, U41C, U44C
# B3: target 1 A9U,C22A (mixed)
# RNA 1: B1 RNA 1
# RNA 2: B1 RNA 2 with C30A, G38A, U40G, A43U
# B4: target 1 insC 3' of 13,insU 3' of 7 (mixed)
# RNA 1: B1 RNA 1
# RNA 2: GGGAAUGGAUCCACAUCUACGAAUUCGUACCAUAGAGAGCGUUAUCUCGCUCACCGAGAUCGGAAGAGCACACGU
# B5: target 1 insU 3' of 15,insG 3' of 1 (mixed)
# RNA 1: B1 RNA 1
# RNA 2: GGGAAUGGAUCCACAUCUACGAAUUCGUACCAUAGAGUAGGUUAUCCGCUCAGCCGAGAUCGGAAGAGCACACGU
# B6: target 1 insG 3' of 9,insU 3' of 2 (mixed)
# RNA 1: B1 RNA 1
# RNA 2: B5 RNA 2 with U38A, A39G, G41U, U43A, A44G, A52U, G53A
# B7: target 1 insU 3' of 13,insU 3' of 5 (mixed)
# RNA 1: B1 RNA 1
# RNA 2: B4 RNA 2 with C40U, U47C, C48G, G49U
# B8: target 1 insC 3' of 11,insC 3' of 8 (mixed)
# RNA 1: B1 RNA 1
# RNA 2: B4 RNA 2 with C40G, G41U, U42C, U47C
# B9: target 1 A14U,G15C (mixed)
# RNA 1: B1 RNA 1
# RNA 2: B1 RNA 2 with G37C, G38U, U40G
# B10: target 1 U3C,G13A (mixed)
# RNA 1: B1 RNA 1
# RNA 2: B1 RNA 2 with G38A, G39A, U40G, U49C
# B11: target 1 U11G,G13A (mixed)
# RNA 1: B1 RNA 1
# RNA 2: B1 RNA 2 with G38A, G39A, U40G, U41G
# B12: target 1 insU 3' of 15,insU 3' of 1 (mixed)
# RNA 1: B1 RNA 1
# RNA 2: B5 RNA 2 with G53U
# B13: target 1 insA 3' of 6,insU 3' of 2 (mixed)
# RNA 1: B1 RNA 1
# RNA 2: B5 RNA 2 with U38A, A39G, G41U, U43A, A44U, U45C, C47A, A52U, G53A
# B14: target 1 U3C,U11A (mixed)
# RNA 1: B1 RNA 1
# RNA 2: B1 RNA 2 with G38A, U40G, U41A, U49C
# B15: target 1 U8C,A16G (mixed)
# RNA 1: B1 RNA 1
# RNA 2: B1 RNA 2 with A36G, G38A, U40G, U44C
# B16: target 1 insG 3' of 10,insG 3' of 2 (mixed)
# RNA 1: B1 RNA 1
# RNA 2: B5 RNA 2 with U38A, A39G, G41U, U43G, A52G, G53A
# B17: target 1 U3G,C6G (mixed)
# RNA 1: B1 RNA 1
# RNA 2: B1 RNA 2 with G38A, U40G, C46G, U49G
# B18: target 1 insC 3' of 11,insG 3' of 6 (mixed)
# RNA 1: B1 RNA 1
# RNA 2: B4 RNA 2 with C40G, G41U, U42C, U47C, C48G
# B19: target 1 insA 3' of 13,insU 3' of 6 (mixed)
# RNA 1: B1 RNA 1
# RNA 2: B4 RNA 2 with C40A, U47C, C48U
# B20: target 1 insU 3' of 20,insA 3' of 3 (mixed)
# RNA 1: B1 RNA 1
# RNA 2: B5 RNA 2 with A34U, G35A, A36G, G37A, U38G, C51A, A52C, G53A
# B21: target 1 U8C,A9G (mixed)
# RNA 1: B1 RNA 1
# RNA 2: B1 RNA 2 with G38A, U40G, A43G, U44C
# B22: target 1 insC 3' of 16,insG 3' of 10 (mixed)
# RNA 1: B1 RNA 1
# RNA 2: B4 RNA 2 with G37C, A38G, G39A, C40G, A44G, U45A, C46U, U47C
# B23: target 1 insU 3' of 15,insC 3' of 1 (mixed)
# RNA 1: B1 RNA 1
# RNA 2: B5 RNA 2 with G53C
# B24: target 1 insU 3' of 15,insA 3' of 2 (mixed)
# RNA 1: B1 RNA 1
# RNA 2: B5 RNA 2 with G53A
# B25: target 1 insU 3' of 14,insC 3' of 13 (mixed)
# RNA 1: B1 RNA 1
# RNA 2: B4 RNA 2 with G39U, C40G, G41C, U42G, A44U, U45A, C46U, U47C
# B26: target 1 insC 3' of 13,insA 3' of 8 (mixed)
# RNA 1: B1 RNA 1
# RNA 2: B4 RNA 2 with C46A, U47C
# B27: target 1 insC 3' of 16,insA 3' of 3 (mixed)
# RNA 1: B1 RNA 1
# RNA 2: B5 RNA 2 with G37C, U38G, C51A, A52C, G53A
# B28: target 1 insA 3' of 21,insG 3' of 21 (mixed)
# RNA 1: B1 RNA 1
# RNA 2: B4 RNA 2 with U33G, G35U, C40A, U42G, A44U, U45A, C46U, U47C
# B29: target 1 insG 3' of 6,insU 3' of 4 (mixed)
# RNA 1: B1 RNA 1
# RNA 2: B4 RNA 2 with C40G, G41U, U43A, A44U, U45C, U47G, C48G, G49C, C50U
# Target: T1, EsCas13d, nuclease-dead
# Test: crRNA (strand 1, pre-loaded); Mg2+; 40 mM Tris-HCl pH 7.5, 150 mM NaCl, 6 mM MgCl2, 1 mM DTT, 0.1% Tween-20, 0.2 mg/ml BSA; 25 C; 10 min per concentration, then washed
# Conditions: tags: His6-TwinStrep-SUMO cleaved; N-terminal SNAP kept (SNAP-Surface 488); label: 3' end held by stalled T7 RNA polymerase
row,Binder,Kd
1,B1,32.7 ± 3 nM
2,B2,12.2 ± 0.6 nM
3,B3,16.9 ± 0.9 nM
4,B4,25.7 ± 1.8 nM
5,B5,11.6 ± 0.7 nM
6,B6,18.9 ± 1.2 nM
7,B7,22.4 ± 3.3 nM
8,B8,~70 nM
9,B9,~80 nM
10,B10,37 ± 8 nM
11,B11,16.6 ± 1.6 nM
12,B12,11.2 ± 0.8 nM
13,B13,21 ± 4 nM
14,B14,~58 nM
15,B15,54 ± 5 nM
16,B16,34.6 ± 3.1 nM
17,B17,4.32 ± 0.23 nM
18,B18,44 ± 8 nM
19,B19,4.15 ± 0.3 nM
20,B20,11.3 ± 1.1 nM
21,B21,13.4 ± 0.6 nM
22,B22,79 ± 15 nM
23,B23,8.8 ± 0.5 nM
24,B24,10.9 ± 1.1 nM
25,B25,29 ± 5 nM
26,B26,16.6 ± 0.6 nM
27,B27,62 ± 10 nM
28,B28,40 ± 5 nM
29,B29,10.6 ± 0.5 nM
